# Experimental data: publication PMC10014536
# Target: bovine rhodopsin (bovine) (UniProt P02699)
# Sequence of UniProt P02699 (P02699 whole entry): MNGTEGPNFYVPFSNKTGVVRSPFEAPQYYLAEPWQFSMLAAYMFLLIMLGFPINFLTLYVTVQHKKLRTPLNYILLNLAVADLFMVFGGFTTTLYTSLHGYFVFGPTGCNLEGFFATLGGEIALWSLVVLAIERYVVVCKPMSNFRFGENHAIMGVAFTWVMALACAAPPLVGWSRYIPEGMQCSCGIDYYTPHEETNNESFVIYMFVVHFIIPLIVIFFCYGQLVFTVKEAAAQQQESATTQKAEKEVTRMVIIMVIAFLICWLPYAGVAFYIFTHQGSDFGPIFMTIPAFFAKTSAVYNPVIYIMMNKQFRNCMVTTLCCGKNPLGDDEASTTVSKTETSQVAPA
substance,measurement,value
Gso (Gs subunit chimera with a Go tail),"light-evoked second messenger (cAMP) plate reader assay in transfected HEK293 cells, G-protein subtype profile of bovine rhodopsin (Supplementary Figure S5)",10%
